Experimental data: US20190144550A1 (Pfizer, published 2019)

B1: h62G7-EQ/L6 (antibody, V domains shown)
VH: QVQLVQSGAEVKKPGASVKVSCKASGYTFTDYTLHWVRQAPGQGLEWMGGIWPITGGTTYNQKFKGRVTMTRDTSTSTVYMELSSLRSEDTAVYYCARGEAQGSWGQGTLVTVSS
VL: DVVMTQSPLSLPVTLGQPASISCKSSQSLLYSNGKTYLNWFQQRPGQSPRRLIYQVSKLDSGVPDRFSGSGSGTDFTLKISRVEAEDVGVYYCGQDTHFPLTFGGGTKVEIK
notes: Humanized, human IgG1 recombinant antibody; also called h62G7-L6/EQ
B2: h62G7-H14/L1-DV (antibody, V domains shown)
VH: QVQLVQSGAEVKKPGASVKVSCKASGYTFTDYTLHWVRQAPGQGLEWMGGIWPITGGTTYNQKFKGRVTMTRDTSTSTVYMELSSLRSEDTAVYYCARGEAEGSWGQGTLVTVSS
VL: DVVMTQSPLSLPVTLGQPASISCKSSQSLLYSNDKTYTNWFQQRPGQSPRRLIYEVSKLDVGVPDRFSGSGSGTDFTLKISRVEAEDVGVYYCGQDTHFPLTFGGGTKVEIK
notes: Humanized, human IgG1 recombinant antibody
B3: h62G7-EQ/L1-DV (antibody, V domains shown)
VH: QVQLVQSGAEVKKPGASVKVSCKASGYTFTDYTLHWVRQAPGQGLEWMGGIWPITGGTTYNQKFKGRVTMTRDTSTSTVYMELSSLRSEDTAVYYCARGEAQGSWGQGTLVTVSS
VL: DVVMTQSPLSLPVTLGQPASISCKSSQSLLYSNDKTYTNWFQQRPGQSPRRLIYEVSKLDVGVPDRFSGSGSGTDFTLKISRVEAEDVGVYYCGQDTHFPLTFGGGTKVEIK
notes: Human IgG1
B4: h62G7-H14/L6 (antibody, V domains shown)
VH: QVQLVQSGAEVKKPGASVKVSCKASGYTFTDYTLHWVRQAPGQGLEWMGGIWPITGGTTYNQKFKGRVTMTRDTSTSTVYMELSSLRSEDTAVYYCARGEAEGSWGQGTLVTVSS
VL: DVVMTQSPLSLPVTLGQPASISCKSSQSLLYSNGKTYLNWFQQRPGQSPRRLIYQVSKLDSGVPDRFSGSGSGTDFTLKISRVEAEDVGVYYCGQDTHFPLTFGGGTKVEIK
notes: Human IgG1
B5: C6 EGFRvIII specific CAR (other)
chain: QVQLVQSGAEVKKPGSSVKVSCKASGDTFSSNAISWVRQAPGQGLEWMGVIIPIFGTADYAQKFQGRVTITADESTSTAYMELSSLRSEDTAVYYCARHTYHEYAGGYYGGAMDPWGQGTLVTVSSGGGGSGGGGSGGGGSGGGGSELQSVLTQPPSASGTPGQRVTISCSGSSSNIGSNYVYWYQQLPGTAPKILIYRNNQRPSGVPDRFSGSKSGTSASLAISGLRSEDEADYYCAAWDDNLSGWVFGTGTKLTVLTTTPAPRPPTPAPTIASQPLSLRPEACRPAAGGAVHTRGLDFACDIYIWAPLAGTCGVLLLSLVITLYCKRGRKKLLYIFKQPFMRPVQTTQEEDGCSCRFPEEEEGGCELRVKFSRSADAPAYQQGQNQLYNELNLGRREEYDVLDKRRGRDPEMGGKPRRKNPQEGLYNELQKDKMAEAYSEIGMKGERRRGKGHDGLYQGLSTATKDTYDALHMQALPPR
notes: Chimeric antigen receptor on primary human T cells; also called EGFRvIII specific clone C6 CAR
B6: m62G7 (antibody, V domains shown)
VH: EVQLQQSGPELVKPGASVKISCKTSGYTFTDYTLHWVKQSHVKSLEWIGGIDPINGGTTYNQKFKGKATLTVDKSSSTAYMELRSLTSEDSAVYYCARGEAMDSWGQGTSVTVSS
VL: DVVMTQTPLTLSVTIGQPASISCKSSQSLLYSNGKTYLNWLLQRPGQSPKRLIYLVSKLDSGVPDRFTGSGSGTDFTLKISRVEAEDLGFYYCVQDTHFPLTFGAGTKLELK
notes: Tested as murine-human chimeric antibody, captured by anti-human Fc; also called recombinant anti-EGFRvIII chimeric antibody m62G7
B7: B5 (antibody, V domains shown)
VH: EVQLLESGGGLVQPGGSLRLSCAASGFTFSNYAMSWVRQAPGKGLEWVSDISGGGGRTYYADSVKGRFTISRDNSKNTLYLQMNSLRAEDTAVYYCARAGLLYGGGVYPMDIWGQGTLVTVSS
VL: not shown
notes: From a phage library; recombinant human IgG1
B8: C6 (antibody, V domains shown)
VH: QVQLVQSGAEVKKPGSSVKVSCKASGDTFSSNAISWVRQAPGQGLEWMGVIIPIFGTADYAQKFQGRVTITADESTSTAYMELSSLRSEDTAVYYCARHTYHEYAGGYYGGAMDPWGQGTLVTVSS
VL: not shown
notes: as for B7

What was measured:
[1] = biological target: T1, Monomeric 8-histidine tagged human EGFRvIII extracellular domain (human, UniProt P00533 298-645); assay: SPR, captured by anti-human Fc, 37 C
T1 construct: Analyte in all SPR assays; not shown: 8-histidine tag
Source text: (§1) Anti-EGFRvII mouse (m) antibody, m62G7, generated from hybridomas was sequenced and subcloned into suitable vectors for expression as murine-human chimeric antibodies. The CDRs of mouse antibody m62G7 were grafted onto human framework and expressed as human IgG1 recombinant antibody, h62G7. Affinity variants of h62G7 were made by introducing mutations in the CDRs of the heavy and light chains. The affinities of recombinant anti-EGFRvIII chimeric antibody m62G7 and humanized h62G7 antibodies were measured on a surface plasmon resonance Biacore™ T200 biosensor equipped with a research-grade anti-human Fc coupled CM4 sensor chip (GE Healthcare Inc., Piscataway, N.J.). Anti-EGFRvII antibodies were then captured by anti-human Fc. Monomeric 8-histidine tagged human EGFRvIII extracellular domain was then injected as the analyte at 10-fold dilution series with top concentration at 1000 nM. Affinity of anti-EGFRvIII antibodies towards human EGFRvIII was measured at both 25° C. and 37° C.

[2] = biological target: T1, Monomeric 8-histidine tagged human …; assay: SPR, captured by anti-human Fc, 25 C
Source text: as §1

[3] = biological target: T2, 8-histidine tagged recombinant wild-type protein EGFRwt (UniProt P00533 25-645, limits assumed); assay: SPR, captured by anti-human Fc
T2 construct: not shown: 8-histidine tag

[4] = biological target: T1, Monomeric 8-histidine tagged human …; assay: SPR, captured by anti-human Fc, 25 C; 25 C
EGFR-mFc = biological target: T3, EGFR-mFc (human; mouse, UniProt P00533 25-645); assay: flow cytometry, CAR T cells on Day 4 after transduction incubated with EGFR-mFc, then PE-labeled goat anti-mouse Fc
T3 construct: extracellular domain; Produced in HEK293 cells; also called recombinant EGFR-mFc; not shown: mouse IgG1-Fc domain
Source text: To determine target binding specificity of the CARs, recombinant proteins EGFRvII-mFc and EGFR-mFc, which comprise of the extracellular domain of either human EGFRvIII or human wild-type EGFR, respectively, fused with mouse IgG1-Fc domain, were produced in HEK293 cells. […]

[5] = biological target: T1, Monomeric 8-histidine tagged human …; assay: SPR, captured by anti-human Fc, 25 C; remark: listed apart in the source
Experimental: Human anti-EGFRvIII antibodies were sequenced and subcloned into suitable vectors for expression as recombinant human IgG1 antibodies. […] (Table 9) on a surface plasmon resonance Biacore™ T200 biosensor equipped with an anti-human Fc coupled CM4 sensor chip (GE Healthcare Inc., Piscataway, N.J.). Anti-EGFRvII antibodies were captured by anti-human Fc. Monomeric 8-histidine tagged human EGFRvIII extracellular domain was then injected as the analyte at 10-fold dilution series starting at 1000 nM.

Binder	Kd [1] [nM]	koff [1] [s⁻¹]	kon [1] [M⁻¹ s⁻¹]	Kd [2] [nM]	koff [2] [s⁻¹]	kon [2] [M⁻¹ s⁻¹]	binding result [3]	koff [4] [s⁻¹]	binding result (EGFR-mFc)	Kd [5] [nM]	koff [5] [s⁻¹]	kon [5] [M⁻¹ s⁻¹]
B1	113	0.074	660000	43.8	0.01	240000	no binding (tested: 1000 nM)					
B2	1540	0.1	66000	1090	0.02	18000	no binding (tested: 1000 nM)					
B3	186	0.069	370000	59.9		200000	no binding (tested: 1000 nM)	0.012				
B4	1580	0.068	43000	992	0.013	13000	no binding (tested: 1000 nM)					
B5									binds			
B6	207	0.17	800000	88.7	0.064	730000	no binding (tested: 1000 nM)					
B7										678	0.0141	20800
B8										532	0.00894	16800
